Drawing on paper PMC2817471, this text covers Kd for two molecules.

Data set [1] concerns the target T1, XPD (Sulfolobus acidocaldarius, UniProt Q4JC68 1-551).
T1 sequence: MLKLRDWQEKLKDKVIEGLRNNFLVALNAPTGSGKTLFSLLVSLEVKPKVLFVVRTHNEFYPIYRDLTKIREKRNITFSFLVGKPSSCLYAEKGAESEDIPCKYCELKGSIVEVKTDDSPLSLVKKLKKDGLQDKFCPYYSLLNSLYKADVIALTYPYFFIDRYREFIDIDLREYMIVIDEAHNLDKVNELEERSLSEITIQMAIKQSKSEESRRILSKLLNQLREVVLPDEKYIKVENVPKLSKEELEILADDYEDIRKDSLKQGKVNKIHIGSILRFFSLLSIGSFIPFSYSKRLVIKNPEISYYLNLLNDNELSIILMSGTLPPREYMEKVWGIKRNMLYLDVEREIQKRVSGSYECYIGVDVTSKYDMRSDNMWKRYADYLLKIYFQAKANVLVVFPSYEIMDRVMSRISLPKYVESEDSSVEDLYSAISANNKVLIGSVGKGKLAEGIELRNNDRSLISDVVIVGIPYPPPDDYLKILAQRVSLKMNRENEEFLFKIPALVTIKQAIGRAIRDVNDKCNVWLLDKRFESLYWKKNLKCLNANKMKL
The data set is described as follows: ITC. A general note: In ITC the heat of successive injections is recorded.

In data set [2] the target is T1, XPD. The data set is described as follows: ITC. This is another data set of the same source.

By Kd is commonly meant the constant that tells how readily two partners part at equilibrium. High values mean a looser complex, low ones a tighter complex.

Like-named read-outs stand apart in the source and are kept apart here.

In turn, TTTTTTTT (ssDNA) [ITC-T8] gave a Kd with XPD [1] above 40 µM.

Turning to TTTTTTTTTTTT (ssDNA) [ITC-T12], the Kd with XPD [2] is 5.6 µM.
